Reference: patent US20160368985A1 (published 2016)
Blank lines part the entries; values can stand above or below the binder they belong to.

What was measured:
[1] = biological target: T1, cynomolgus E11 protein (E11 domain of cynomolgus FcRH5), soluble (cynomolgus monkey); assay: SPR BIACORE T200, IgG capture, monovalent
T1 chain: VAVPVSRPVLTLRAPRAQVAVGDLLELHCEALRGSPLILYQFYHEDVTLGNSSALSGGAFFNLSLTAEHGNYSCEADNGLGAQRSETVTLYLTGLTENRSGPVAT

[2] = biological target: T2, human E11 protein (E11 domain of human FcRH5), soluble (human, UniProt Q96RD9 745-850); assay: SPR BIACORE T200, IgG capture, monovalent
T2 construct: Expressed in CHO cells; also called human E11 domain
T2 sequence: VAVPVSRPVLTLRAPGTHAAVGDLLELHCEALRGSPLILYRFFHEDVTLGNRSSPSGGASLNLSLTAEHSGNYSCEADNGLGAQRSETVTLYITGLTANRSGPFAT

Kd [1]: 27 nM
Kd [2]: 68 nM
B1: 17B1 (antibody, mouse IgG2a, V domains shown)
VH: QVQLQQSGPELVRPGVSVKISCKGSGYTFTHYAMHWVKQSHTKSLEWIGMISSSSGNTNFNQKFMDKATMTVDKSSTTAYLELARLTFGDSAIYYCARWSYYALFDYWGQGTTVTVSS
VL: ENVLTQSPAIMSASPGEKVTMTCSADSSVDYIHWYQQKSNTSPKLWIYDTSKLASGVPGRFSGSGSGNSYSLTISSMEAEDFATYYCFQGSGYPLTFGSGTKLELK
notes: Mouse mAb, Immunization Campaign C; expressed recombinantly as murine IgG2a for SPR

Kd [1]: 9.1 nM
Kd [2]: 0.5 nM
B2: 15G8 (antibody, mouse IgG2a, V domains shown)
VH: EVQLQQSGPELVKPGASVKMSCKASGYTFTNYVIHWMKQKPGQGLEWIGYISPYNDYTKYNEKFEGKATLTSDKSSNTAYMELSSLTSEDSAVYYCARRDYYGSSDYWGQGTTLTVSS
VL: QIVLTQSPAIMSASPGEKVTMTCSASSSVDYMHWYQQKSGTSPKKWIYDTSKLASGVPARFSGSGSGTSYSLTIGSMEAEDAATYYCQQWSSNPPTFGGGTKLEIK
notes: Mouse mAb, Immunization Campaign C; expressed recombinantly as murine IgG2a for SPR; also called mAb 15G8
